Measurements reported in publication PMC8861016.

Target: LRP6mcherry2 (UniProt O75581)
Assay: FRET or BRET; FRET-based FLIM (EGFP donor lifetime) on live HEK293T cells stably expressing CD44EGFP and LRP6mcherry2, induced with Wnt3a CM 1 h before analysis

Chain of UniProt O75581 (O75581 20-1613): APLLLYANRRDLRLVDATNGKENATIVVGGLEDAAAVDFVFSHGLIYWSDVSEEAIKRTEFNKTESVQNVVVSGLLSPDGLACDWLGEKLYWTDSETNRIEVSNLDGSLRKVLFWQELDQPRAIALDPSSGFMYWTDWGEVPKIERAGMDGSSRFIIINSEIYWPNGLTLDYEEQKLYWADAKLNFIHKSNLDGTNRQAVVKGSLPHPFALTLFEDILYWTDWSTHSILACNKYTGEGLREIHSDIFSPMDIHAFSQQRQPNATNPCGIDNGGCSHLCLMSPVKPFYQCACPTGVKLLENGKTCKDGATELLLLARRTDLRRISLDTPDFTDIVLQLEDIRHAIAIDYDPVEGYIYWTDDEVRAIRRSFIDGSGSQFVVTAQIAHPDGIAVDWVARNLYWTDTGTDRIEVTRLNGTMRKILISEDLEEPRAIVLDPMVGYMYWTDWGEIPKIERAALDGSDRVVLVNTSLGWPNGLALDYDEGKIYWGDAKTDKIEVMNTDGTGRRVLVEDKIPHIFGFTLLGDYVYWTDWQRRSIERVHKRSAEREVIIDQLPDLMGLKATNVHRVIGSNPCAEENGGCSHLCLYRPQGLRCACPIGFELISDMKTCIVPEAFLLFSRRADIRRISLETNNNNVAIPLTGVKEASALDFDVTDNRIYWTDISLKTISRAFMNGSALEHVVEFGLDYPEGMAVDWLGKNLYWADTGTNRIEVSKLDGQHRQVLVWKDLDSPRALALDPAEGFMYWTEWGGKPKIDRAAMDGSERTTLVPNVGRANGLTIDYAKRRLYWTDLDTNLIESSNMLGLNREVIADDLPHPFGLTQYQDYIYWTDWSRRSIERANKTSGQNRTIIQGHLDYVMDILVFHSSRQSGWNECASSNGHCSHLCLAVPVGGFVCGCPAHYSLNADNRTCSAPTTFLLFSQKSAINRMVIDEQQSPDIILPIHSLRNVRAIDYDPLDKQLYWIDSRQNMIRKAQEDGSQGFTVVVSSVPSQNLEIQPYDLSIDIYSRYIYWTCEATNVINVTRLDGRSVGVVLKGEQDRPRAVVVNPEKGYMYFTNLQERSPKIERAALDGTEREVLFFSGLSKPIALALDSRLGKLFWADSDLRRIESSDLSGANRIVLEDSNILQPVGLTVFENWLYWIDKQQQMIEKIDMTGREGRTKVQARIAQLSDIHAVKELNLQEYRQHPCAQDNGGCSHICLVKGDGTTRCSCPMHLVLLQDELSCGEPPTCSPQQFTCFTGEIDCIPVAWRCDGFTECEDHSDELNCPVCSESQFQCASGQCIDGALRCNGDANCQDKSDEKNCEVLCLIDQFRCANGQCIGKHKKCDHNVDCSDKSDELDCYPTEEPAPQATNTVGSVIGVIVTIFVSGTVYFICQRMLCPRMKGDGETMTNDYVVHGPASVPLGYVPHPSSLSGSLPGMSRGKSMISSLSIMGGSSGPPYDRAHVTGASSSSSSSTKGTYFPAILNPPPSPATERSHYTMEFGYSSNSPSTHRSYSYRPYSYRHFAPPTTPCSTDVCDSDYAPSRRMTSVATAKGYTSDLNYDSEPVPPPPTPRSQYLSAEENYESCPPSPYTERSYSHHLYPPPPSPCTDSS

EGFP donor fluorescence lifetime: 2450 ps | FRET efficiency: 7.5%
Substance: CD44EGFP (from UniProt P16070 21-742) (receptor)
